Experimental data from US20130315910A1 (Xencor, published 2013).

T1: mFcγRIIb (Mus musculus, UniProt P08101)
T1 construct: extracellular region, C-terminal His- and GST-tag; also called mouse FcγRII
T1 sequence (receptor extracellular region, looked up): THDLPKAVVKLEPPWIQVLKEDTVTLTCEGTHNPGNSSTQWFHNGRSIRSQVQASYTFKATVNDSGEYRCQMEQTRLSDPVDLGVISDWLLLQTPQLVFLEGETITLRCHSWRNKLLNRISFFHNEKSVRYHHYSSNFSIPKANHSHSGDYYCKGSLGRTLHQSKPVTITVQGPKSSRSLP

T2: cynoFcγRIIb (Macaca fascicularis, UniProt A0A140HDP4)
T2 construct: extracellular region, C-terminal His- and GST-tag; also called cynomolgus monkey FcγRIIb
T2 sequence (receptor extracellular region): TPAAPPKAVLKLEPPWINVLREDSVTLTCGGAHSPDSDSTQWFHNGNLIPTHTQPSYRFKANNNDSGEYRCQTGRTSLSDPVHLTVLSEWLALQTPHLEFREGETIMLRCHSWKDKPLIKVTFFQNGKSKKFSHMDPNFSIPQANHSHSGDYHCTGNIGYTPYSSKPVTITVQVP

T3: human FcγRIIb receptor protein (R&D Systems) (human, UniProt P31994 46-217)
T3 construct: Bought protein injected over captured antibody in Biacore; also called CD32b
T3 sequence (looked up): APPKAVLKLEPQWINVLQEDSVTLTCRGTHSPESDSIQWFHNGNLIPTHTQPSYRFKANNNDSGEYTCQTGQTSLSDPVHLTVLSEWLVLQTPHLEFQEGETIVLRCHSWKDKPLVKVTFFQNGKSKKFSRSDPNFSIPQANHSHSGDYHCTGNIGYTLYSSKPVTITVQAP

T4: human FcγRIIa (131R), His- and GST-tagged (human, UniProt P12318 34-217)
T4 construct: Expressed in HEK293T cells, purified by nickel chromatography; also called R131 FcγRIIa; not shown: 6xHis and GST tags of the pTT5 vector
T4 sequence (looked up): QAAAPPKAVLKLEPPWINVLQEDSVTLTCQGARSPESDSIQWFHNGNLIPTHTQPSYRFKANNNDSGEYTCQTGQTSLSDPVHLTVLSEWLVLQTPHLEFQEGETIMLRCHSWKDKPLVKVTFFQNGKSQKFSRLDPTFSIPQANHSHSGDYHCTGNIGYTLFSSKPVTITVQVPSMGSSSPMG

T5: human FcγRIIa (131H), His- and GST-tagged (human, UniProt P12318 34-217)
T5 construct: also called H131 FcγRIIa; HIIa; not shown: 6xHis and GST tags of the pTT5 vector
T5 sequence (looked up): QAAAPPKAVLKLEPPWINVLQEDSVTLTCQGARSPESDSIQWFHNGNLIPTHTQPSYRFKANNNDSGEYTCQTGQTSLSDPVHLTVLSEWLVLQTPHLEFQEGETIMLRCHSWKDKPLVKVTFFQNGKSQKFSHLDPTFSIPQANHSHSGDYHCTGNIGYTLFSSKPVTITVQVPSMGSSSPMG

T6: mFcγRIV
T6 construct: also called mouse FcγRIV; not shown: C-terminal His and GST tags (named only on our card)
T6 chain: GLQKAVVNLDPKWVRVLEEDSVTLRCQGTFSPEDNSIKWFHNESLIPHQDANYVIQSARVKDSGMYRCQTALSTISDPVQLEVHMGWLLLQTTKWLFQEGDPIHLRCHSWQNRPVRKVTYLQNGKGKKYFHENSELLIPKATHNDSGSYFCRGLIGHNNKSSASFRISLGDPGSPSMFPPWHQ


Columns and labels:
mFcγRIIb = target: T1, mFcγRIIb; assay: SPR
cynoFcγRIIb = target: T2, cynoFcγRIIb; assay: SPR
[1] = target: T3, human FcγRIIb receptor protein (R&D …); assay: SPR
[2] = target: T7, human FcγRIIIa (158V), His- and GST-tagged (human, UniProt P08637 17-208); assay: SPR
T7 construct: also called V158 FcγRIIIa; VIIIa; not shown: 6xHis and GST tags of the pTT5 vector
T7 sequence (P08637 17-208 F176V): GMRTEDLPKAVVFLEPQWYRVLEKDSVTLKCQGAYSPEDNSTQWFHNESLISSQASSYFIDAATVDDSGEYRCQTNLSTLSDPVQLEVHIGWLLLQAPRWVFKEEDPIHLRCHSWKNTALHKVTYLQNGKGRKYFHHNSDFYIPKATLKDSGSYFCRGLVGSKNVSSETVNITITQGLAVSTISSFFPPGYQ

[3] = target: T4, human FcγRIIa (131R), His- and …; assay: SPR
[4] = target: T5, human FcγRIIa (131H), His- and …; assay: SPR
[5] = target: T8, human FcγRI receptor protein (R&D Systems) (human, UniProt P12314 16-288); assay: SPR
T8 construct: also called soluble FcγRI; solFcγRI
T8 sequence (P12314 16-288 limits assumed): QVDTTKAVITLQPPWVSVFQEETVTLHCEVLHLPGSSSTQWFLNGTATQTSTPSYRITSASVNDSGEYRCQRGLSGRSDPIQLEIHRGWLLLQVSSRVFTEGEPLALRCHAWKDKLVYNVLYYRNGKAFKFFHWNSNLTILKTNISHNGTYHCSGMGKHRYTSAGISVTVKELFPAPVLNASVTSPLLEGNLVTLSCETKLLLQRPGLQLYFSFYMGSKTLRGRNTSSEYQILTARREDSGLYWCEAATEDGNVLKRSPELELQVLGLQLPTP

cynoFcγRIIIa [6] = target: T9, cynoFcγRIIIa (Macaca fascicularis, UniProt Q8SPW2); assay: SPR, Kd
T9 construct: extracellular region, C-terminal His- and GST-tag; also called cynomolgus monkey FcγRIIIa
T9 sequence (Q8SPW2 17-208): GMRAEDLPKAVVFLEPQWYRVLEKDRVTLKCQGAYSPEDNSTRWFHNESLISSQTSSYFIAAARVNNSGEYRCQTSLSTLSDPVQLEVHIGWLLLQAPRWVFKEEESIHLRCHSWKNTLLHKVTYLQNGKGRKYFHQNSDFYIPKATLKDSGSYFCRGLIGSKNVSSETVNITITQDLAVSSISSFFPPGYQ
Method: Variants were screened for receptor affinity using Biacore™ technology, also referred to as Biacore herein, a surface plasmon resonance (SPR) based technology for studying biomolecular interactions in real time. SPR measurements were performed using a Biacore 3000 instrument (Biacore, Piscataway, N.J.). A protein A/G (Pierce Biotechnology) CM5 biosensor chip (Biacore) was generated using a standard primary amine coupling protocol. All measurements were performed using HBS-EP buffer (10 mM HEPES pH 7.4, 0.15 M NaCl, 3 mM EDTA, 0.005% vol/vol surfactant P20, Biacore). Antibodies at 20 nM or 50 nM in HBS-EP buffer were immobilized on the protein A/G surface and FcγRs were injected. After each cycle, the surface was regenerated by injecting glycine buffer (10 mM, pH 1.5). Data were processed by zeroing time and response before the injection of FcγR and by subtracting appropriate nonspecific signals (response of reference channel and injection of running buffer). Kinetic analyses were performed by global fitting of binding data with a 1:1 Langmuir binding model using BIAevaluation software (Biacore).
Variant antibodies were tested for their affinity to mouse or cynologous monkey FcγRs using Biacore SPR as described above. Specifically, antibodies were first immobilized on a protein A/G chip to high density, and then followed by injections of the extracellular domain of the mouse or cynologous monkey FcγR of interest. Both association and dissociation phases were tracked in real time using the Biacore technology.

cynoFcγRIIIa [7] = target: T9, cynoFcγRIIIa; assay: SPR
mFcγRIV = target: T6, mFcγRIV; assay: SPR
[8] = target: T3, human FcγRIIb receptor protein (R&D …); assay: Biacore SPR, Kd(native IgG1)/Kd(variant)
[9] = target: T3, human FcγRIIb receptor protein (R&D …); assay: Biacore SPR, antibody captured on protein A/G chip, FcγR injected
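Throughout, for Fold vs WT IgG1 (off-rate): fold improvement over WT IgG1 so higher means slower dissociation than WT.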

Binder	Fold vs WT IgG1 (off-rate) (mFcγRIIb) [fold]	Fold vs WT IgG1 (off-rate) (cynoFcγRIIb) [fold]	Fold vs WT IgG1 [1] [fold]	Kd [1] [nM]	binding result [2]	Fold vs WT IgG1 [3] [fold]	Kd [3] [nM]	Fold vs WT IgG1 [4] [fold]	Kd [4] [nM]	Fold vs WT IgG1 [5] [fold]	Kd [5] [nM]	binding result (cynoFcγRIIIa [6])	Fold vs WT IgG1 (off-rate) (cynoFcγRIIIa [7]) [fold]	Fold vs WT IgG1 (off-rate) (mFcγRIV) [fold]	Fold vs WT IgG1 [2] [fold]	Kd [2] [nM]	fold affinity relative to native IgG1 [8] [fold]	Kd [9] [nM]
S267E/L328Y (antibody, human IgG1, kappa, HuAM4G7 anti-CD19 IgG1 (m1) with these Fc substitutions, EU index; copies: 2 + 2) heavy: not shown light: DIVMTQSPATLSLSPGERATLSCRSSKSLQNVNGNTYLYWFQQKPGQSPQLLIYRMSNLNSGVPDRFSGSGSGTEFTLTISSLEPEDFAVYYCMQHLEYPITFGAGTKLEIKRTVAAPSVFIFPPSDEQLKSGTASVVCLLNNFYPREAKVQWKVDNALQSGNSQESVTEQDSKDSTYSLSSTLTLSKADYEKHKVYACEVTHQGLSSPVTKSFNRGEC	7.92	1.93	43.1	34.1	no binding	122	7.06	1.34	481	0.224	1.47	no binding						
anti-CD19 antibody HuAM4G7 IgG1 S267A (antibody, Positions in EU numbering; copies: 2 + 2) heavy: not shown light: DIVMTQSPATLSLSPGERATLSCRSSKSLQNVNGNTYLYWFQQKPGQSPQLLIYRMSNLNSGVPDRFSGSGSGTEFTLTISSLEPEDFAVYYCMQHLEYPITFGAGTKLEIKRTVAAPSVFIFPPSDEQLKSGTASVVCLLNNFYPREAKVQWKVDNALQSGNSQESVTEQDSKDSTYSLSSTLTLSKADYEKHKVYACEVTHQGLSSPVTKSFNRGEC	3.02	1.05				4.29	200	1.22	530	1.15	0.287		1.27	1.53	0.952	201	3.6	408
